Where “and” joins values, the source holds several entries; their conditions need not be identical. Identical values can stand only once.
Key:
[1] = target: human TIM-3 protein with hFc tag (hTIM-3-hFc protein) (human) (UniProt Q8TDQ0); assay: ELISA, coated hTIM-3-hFc; antibody 66.667 nM
[2] = target: human TIM-3 protein with hFc tag (hTIM-3-hFc protein) (human) (UniProt Q8TDQ0); assay: ELISA, hTIM-3-hFc coated at 1 ug/ml; antibody 0.53 nM
[3] = target: human TIM-3 protein with hFc tag (hTIM-3-hFc protein) (human) (UniProt Q8TDQ0); assay: ELISA, coated hTIM-3-hFc; antibody 0.0667 nM
[4] = target: human TIM-3 protein with hFc tag (hTIM-3-hFc protein) (human) (UniProt Q8TDQ0); assay: ELISA, coated hTIM-3-hFc; antibody 6.6667 nM
[5] = target: monkey TIM-3 protein with hFc tag (cTIM-3-hFc protein) (monkey; human); assay: ELISA, coated cTIM-3-hFc; antibody 0.6667 nM
[6] = target: murine TIM-3 protein with hFc tag (mTIM-3-hFc protein) (mouse; human) (UniProt Q8VIM0); assay: ELISA, coated mTIM-3-hFc; antibody 6.6667 nM
[7] = target: monkey TIM-3 protein with hFc tag (cTIM-3-hFc protein) (monkey; human); assay: ELISA, coated cTIM-3-hFc; antibody 0.0001 nM
[8] = target: human TIM-3 protein with hFc tag (hTIM-3-hFc protein) (human) (UniProt Q8TDQ0); assay: ELISA, coated hTIM-3-hFc; antibody 0 nM (blank)
[9] = target: murine TIM-3 protein with hFc tag (mTIM-3-hFc protein) (mouse; human) (UniProt Q8VIM0); assay: ELISA, coated mTIM-3-hFc; antibody 0.0067 nM
[10] = target: murine TIM-3 protein with hFc tag (mTIM-3-hFc protein) (mouse; human) (UniProt Q8VIM0); assay: ELISA, coated mTIM-3-hFc; antibody 0.0667 nM
[11] = target: human TIM-3 protein with hFc tag (hTIM-3-hFc protein) (human) (UniProt Q8TDQ0); assay: ELISA, hTIM-3-hFc coated at 1 ug/ml; antibody 66.7 nM
[12] = target: murine TIM-3 protein with hFc tag (mTIM-3-hFc protein) (mouse; human) (UniProt Q8VIM0); assay: ELISA, coated mTIM-3-hFc; antibody 0 nM (blank)
[13] = target: monkey TIM-3 protein with hFc tag (cTIM-3-hFc protein) (monkey; human); assay: ELISA, coated cTIM-3-hFc; antibody 6.6667 nM
[14] = target: human TIM-3, full length, on cells (human) (UniProt Q8TDQ0); assay: FACS, CHOK1-hTIM-3 cells; antibody 8 nM
[15] = target: human TIM-3, full length, on cells (human) (UniProt Q8TDQ0); assay: FACS, CHOK1-hTIM-3 cells; antibody 40 nM
[16] = target: human TIM-3 protein with hFc tag (hTIM-3-hFc protein) (human) (UniProt Q8TDQ0); assay: ELISA, hTIM-3-hFc coated at 1 ug/ml; antibody 2.67 nM
[17] = target: human TIM-3 protein with hFc tag (hTIM-3-hFc protein) (human) (UniProt Q8TDQ0); assay: ELISA, hTIM-3-hFc coated at 1 ug/ml; antibody 0.021 nM
[18] = target: human TIM-3 protein with hFc tag (hTIM-3-hFc protein) (human) (UniProt Q8TDQ0); assay: ELISA, coated hTIM-3-hFc; antibody 0.0007 nM
[19] = target: human TIM-3, full length, on cells (human) (UniProt Q8TDQ0); assay: FACS, CHOK1-hTIM-3 cells; antibody 1.6 nM
[20] = target: human TIM-3, full length, on cells (human) (UniProt Q8TDQ0); assay: FACS, CHOK1-hTIM-3 cells; antibody 200 nM
[21] = target: human TIM-3, full length, on cells (human) (UniProt Q8TDQ0); assay: FACS, CHOK1-hTIM-3 cells; antibody 0.064 nM
[22] = target: human TIM-3 protein with hFc tag (hTIM-3-hFc protein) (human) (UniProt Q8TDQ0); assay: ELISA, hTIM-3-hFc coated at 1 ug/ml; antibody 0.0043 nM
[23] = target: human TIM-3 protein with hFc tag (hTIM-3-hFc protein) (human) (UniProt Q8TDQ0); assay: ELISA, hTIM-3-hFc coated at 1 ug/ml; antibody 0.11 nM
[24] = target: monkey TIM-3 protein with hFc tag (cTIM-3-hFc protein) (monkey; human); assay: ELISA, coated cTIM-3-hFc; antibody 0.0067 nM
[25] = target: human TIM-3 protein with hFc tag (hTIM-3-hFc protein) (human) (UniProt Q8TDQ0); assay: ELISA, coated hTIM-3-hFc; antibody 0.6667 nM
[26] = target: human TIM-3, full length, on cells (human) (UniProt Q8TDQ0); assay: FACS, CHOK1-hTIM-3 cells; antibody 0.013 nM
[27] = target: monkey TIM-3 protein with hFc tag (cTIM-3-hFc protein) (monkey; human); assay: ELISA, coated cTIM-3-hFc; antibody 0 nM (blank)
[28] = target: monkey TIM-3 protein with hFc tag (cTIM-3-hFc protein) (monkey; human); assay: ELISA, coated cTIM-3-hFc; antibody 0.0007 nM
[29] = target: human TIM-3 protein with hFc tag (hTIM-3-hFc protein) (human) (UniProt Q8TDQ0); assay: ELISA, hTIM-3-hFc coated at 1 ug/ml; antibody 0 nM (blank)
[30] = target: murine TIM-3 protein with hFc tag (mTIM-3-hFc protein) (mouse; human) (UniProt Q8VIM0); assay: ELISA, coated mTIM-3-hFc; antibody 0.0001 nM
[31] = target: murine TIM-3 protein with hFc tag (mTIM-3-hFc protein) (mouse; human) (UniProt Q8VIM0); assay: ELISA, coated mTIM-3-hFc; antibody 66.667 nM
[32] = target: monkey TIM-3 protein with hFc tag (cTIM-3-hFc protein) (monkey; human); assay: ELISA, coated cTIM-3-hFc; antibody 0.0667 nM
[33] = target: murine TIM-3 protein with hFc tag (mTIM-3-hFc protein) (mouse; human) (UniProt Q8VIM0); assay: ELISA, coated mTIM-3-hFc; antibody 0.0007 nM
[34] = target: murine TIM-3 protein with hFc tag (mTIM-3-hFc protein) (mouse; human) (UniProt Q8VIM0); assay: ELISA, coated mTIM-3-hFc; antibody 0.6667 nM
[35] = target: human TIM-3 protein with hFc tag (hTIM-3-hFc protein) (human) (UniProt Q8TDQ0); assay: ELISA, coated hTIM-3-hFc; antibody 0.0001 nM
[36] = target: human TIM-3 protein with hFc tag (hTIM-3-hFc protein) (human) (UniProt Q8TDQ0); assay: ELISA, hTIM-3-hFc coated at 1 ug/ml; antibody 13.34 nM
[37] = target: human TIM-3, full length, on cells (human) (UniProt Q8TDQ0); assay: FACS, CHOK1-hTIM-3 cells; antibody 0.32 nM
[38] = target: human TIM-3 protein with hFc tag (hTIM-3-hFc protein) (human) (UniProt Q8TDQ0); assay: ELISA, coated hTIM-3-hFc; antibody 0.0067 nM
[39] = target: human TIM-3, full length, on cells (human) (UniProt Q8TDQ0); assay: FACS, CHOK1-hTIM-3 cells; antibody 0 nM (blank)
[40] = target: monkey TIM-3 protein with hFc tag (cTIM-3-hFc protein) (monkey; human); assay: ELISA, coated cTIM-3-hFc; antibody 66.667 nM
[41] = target: human TIM-3 protein on human PBMC (human) (UniProt Q8TDQ0); assay: cell-based or functional assay
[42] = target: monkey TIM-3 on CHOK1 stable cell line (CHOK1-cTIM-3) (monkey); assay: FACS, CHOK1-cTIM-3 cells, 0 nM antibody
[43] = target: monkey TIM-3 on CHOK1 stable cell line (CHOK1-cTIM-3) (monkey); assay: FACS, CHOK1-cTIM-3 cells, 200 nM antibody
[44] = target: TIM-3 protein on human peripheral blood mononuclear lymphocytes (PBMC) (human) (UniProt Q8TDQ0); assay: cell-based or functional assay
[45] = target: monkey TIM-3 on CHOK1 stable cell line (CHOK1-cTIM-3) (monkey); assay: FACS, CHOK1-cTIM-3 cells, 0.013 nM antibody
[46] = target: monkey TIM-3 on CHOK1 stable cell line (CHOK1-cTIM-3) (monkey); assay: FACS, CHOK1-cTIM-3 cells, 0.064 nM antibody
[47] = target: monkey TIM-3 on CHOK1 stable cell line (CHOK1-cTIM-3) (monkey); assay: FACS, CHOK1-cTIM-3 cells, 0.32 nM antibody
[48] = target: monkey TIM-3 on CHOK1 stable cell line (CHOK1-cTIM-3) (monkey); assay: FACS, CHOK1-cTIM-3 cells, 40 nM antibody
[49] = target: monkey TIM-3 on CHOK1 stable cell line (CHOK1-cTIM-3) (monkey); assay: FACS, CHOK1-cTIM-3 cells, 8 nM antibody
[50] = target: monkey TIM-3 on CHOK1 stable cell line (CHOK1-cTIM-3) (monkey); assay: FACS, CHOK1-cTIM-3 cells, 1.6 nM antibody

Chain of monkey TIM-3 protein with hFc tag (cTIM-3-hFc protein) (monkey; human) (chain, as listed by the source): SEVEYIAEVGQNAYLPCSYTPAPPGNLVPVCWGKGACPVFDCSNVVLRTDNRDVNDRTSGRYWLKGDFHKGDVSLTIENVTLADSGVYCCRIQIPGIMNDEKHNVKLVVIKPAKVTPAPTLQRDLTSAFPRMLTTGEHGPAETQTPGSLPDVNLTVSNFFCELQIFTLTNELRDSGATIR
Chain of human TIM-3 protein with hFc tag (hTIM-3-hFc protein) (human) (Q8TDQ0 22-200): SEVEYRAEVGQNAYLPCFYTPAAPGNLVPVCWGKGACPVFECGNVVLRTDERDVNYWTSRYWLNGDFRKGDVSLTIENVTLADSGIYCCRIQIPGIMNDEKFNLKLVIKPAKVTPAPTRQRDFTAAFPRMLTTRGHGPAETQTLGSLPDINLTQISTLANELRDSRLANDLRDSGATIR
Chain of murine TIM-3 protein with hFc tag (mTIM-3-hFc protein) (mouse; human) (Q8VIM0 other isoform, or with tags, fused parts or gaps): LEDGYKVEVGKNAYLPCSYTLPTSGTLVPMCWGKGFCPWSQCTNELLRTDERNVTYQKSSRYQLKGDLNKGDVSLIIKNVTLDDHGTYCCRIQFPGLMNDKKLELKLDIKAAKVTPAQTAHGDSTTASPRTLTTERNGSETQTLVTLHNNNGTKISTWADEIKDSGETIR
Chain of human TIM-3 protein on human PBMC (human) (Q8TDQ0 22-301 limits assumed): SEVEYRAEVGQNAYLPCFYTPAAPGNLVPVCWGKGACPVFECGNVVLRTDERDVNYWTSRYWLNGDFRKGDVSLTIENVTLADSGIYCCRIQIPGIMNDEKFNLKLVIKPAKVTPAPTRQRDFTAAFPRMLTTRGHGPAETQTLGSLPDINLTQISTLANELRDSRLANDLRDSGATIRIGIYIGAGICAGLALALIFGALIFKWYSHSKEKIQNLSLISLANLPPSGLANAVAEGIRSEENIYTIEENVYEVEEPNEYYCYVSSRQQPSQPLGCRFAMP
Chain of human TIM-3, full length, on cells (human) (Q8TDQ0 22-301 limits assumed): as above
Chain of TIM-3 protein on human peripheral blood mononuclear lymphocytes (PBMC) (human) (Q8TDQ0 22-301 limits assumed): as above
Chain of monkey TIM-3 on CHOK1 stable cell line (CHOK1-cTIM-3) (monkey) (chain, as listed by the source limits assumed): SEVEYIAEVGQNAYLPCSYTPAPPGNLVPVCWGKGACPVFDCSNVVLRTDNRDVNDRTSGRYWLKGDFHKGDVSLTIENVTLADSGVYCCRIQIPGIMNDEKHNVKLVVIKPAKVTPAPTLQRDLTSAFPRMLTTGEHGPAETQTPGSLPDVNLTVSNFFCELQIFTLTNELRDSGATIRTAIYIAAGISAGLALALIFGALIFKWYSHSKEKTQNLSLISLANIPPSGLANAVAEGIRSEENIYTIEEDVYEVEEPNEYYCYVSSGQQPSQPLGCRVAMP

rat IgG (negative control antibody) was tested, and the OD450 [1] was 0.22, the OD450 nm [2] was 0.63 and 0.65 and the OD450 [3] was 0.12. The OD450 [4] was 0.13, the OD450 [5] was 0.55 and the OD450 [6] was 0.65. For the same substance, the OD450 [7] was 0.54, the OD450 [8] was 0.11 and the OD450 [9] was 0.62. The OD450 [10] was 0.64, the OD450 nm [11] was 0.72 and 0.7 and the OD450 [12] was 0.6. It also gave an OD450 [13] of 0.58, a Mean fluorescence intensity [14] of 3.1 and a Mean fluorescence intensity [15] of 3.3. For the same substance, the OD450 nm [16] was 0.69 and 0.58, the OD450 nm [17] was 0.55 and 0.58 and the OD450 [18] was 0.12. For the same substance, the Mean fluorescence intensity [19] was 3, the Mean fluorescence intensity [20] was 3.8 and the Mean fluorescence intensity [21] was 3. For the same substance, the OD450 nm [22] was 0.63 and 0.59, the OD450 nm [23] was 0.6 and 0.59 and the OD450 [24] was 0.57. The OD450 [25] was 0.13, the Mean fluorescence intensity [26] was 3 and the OD450 [27] was 0.55. The OD450 [28] was 0.55, the OD450 nm [29] was 0.61 and 0.59 and the OD450 [30] was 0.63. The OD450 [31] was 0.75, the OD450 [32] was 0.54 and the OD450 [33] was 0.67. The OD450 [34] was 0.66, the OD450 [35] was 0.11 and the OD450 nm [36] was 0.63. The Mean fluorescence intensity [37] was 3, the OD450 [38] was 0.12 and the Mean fluorescence intensity [39] was 3. The OD450 [40] was 0.68.
In the case of “commercially available anti-TIM-3 antibody (R&D system, MAB2365)”, the OD450 nm [2] is reported as 3.52 and 3.38, the OD450 nm [11] is reported as 3.48 and 3.44 and the OD450 nm [16] is reported as 3.42 and 3.32. For the same substance, the OD450 nm [17] was 1.78 and 1.75, the OD450 nm [22] was 0.92 and 0.86 and the OD450 nm [23] was 3.23 and 3.27. For the same substance, the OD450 nm [29] was 0.6 and 0.59 and the OD450 nm [36] was 3.45 and 3.42.
With hIgG control (human IgG) (antibody) the IFN-γ production, lymphocyte activation assay (donor Y), negative control IgG 0.1 µg/ml, N = 1 [41] was 2100 pg/mL, the IFN-γ production, lymphocyte activation assay (donor Y), negative control IgG 0.1 µg/ml, N = 2 [41] was 2020 pg/mL and the IFN-γ production, lymphocyte activation assay (donor Y), negative control IgG 1 µg/ml, N = 1 [41] was 2190 pg/mL. It also gave an IFN-γ production, lymphocyte activation assay (donor Y), negative control IgG 1 µg/ml, N = 2 [41] of 1770 pg/mL, an IFN-γ production, lymphocyte activation assay (donor Y), negative control IgG 10 µg/ml, N = 1 [41] of 1930 pg/mL and an IFN-γ production, lymphocyte activation assay (donor Y), negative control IgG 10 µg/ml, N = 2 [41] of 1980 pg/mL. The IFN-γ production, lymphocyte activation assay (donor Y), negative control IgG, concentration head printed '0' (fifth), N = 1 [41] was 2000 pg/mL, the IFN-γ production, lymphocyte activation assay (donor Y), negative control IgG, concentration head printed '0' (fifth), N = 2 [41] was 2070 pg/mL and the IFN-γ production, lymphocyte activation assay (donor Y), negative control IgG, concentration head printed '0' (fourth), N = 1 [41] was 1990 pg/mL. The IFN-γ production, lymphocyte activation assay (donor Y), negative control IgG, concentration head printed '0' (fourth), N = 2 [41] was 2160 pg/mL.
With rat IgG control (antibody) the Mean fluorescence intensity [42] was 3.2, the Mean fluorescence intensity [43] was 4.8 and the IFN production; antibody 0.001 µg/ml (4th head as printed), N = 1 [44] was 738 pg/mL. It also gave an IFN production; antibody 0.001 µg/ml (4th head as printed), N = 2 [44] of 786 pg/mL, an IFN production; antibody 0.001 µg/ml (5th head as printed), N = 1 [44] of 727 pg/mL and an IFN production; antibody 0.001 µg/ml (5th head as printed), N = 2 [44] of 714 pg/mL. It also gave an IFN production; antibody 0.1 µg/ml, N = 1 [44] of 718 pg/mL, an IFN production; antibody 0.1 µg/ml, N = 2 [44] of 664 pg/mL and an IFN production; antibody 1 µg/ml, N = 1 [44] of 694 pg/mL. For the same substance, the IFN production; antibody 1 µg/ml, N = 2 [44] was 574 pg/mL, the IFN production; antibody 10 µg/ml, N = 1 [44] was 620 pg/mL and the IFN production; antibody 10 µg/ml, N = 2 [44] was 582 pg/mL. It also gave a Mean fluorescence intensity [45] of 3.3, a Mean fluorescence intensity [46] of 3.4 and a Mean fluorescence intensity [47] of 3.5. It also gave a Mean fluorescence intensity [48] of 3.7, a Mean fluorescence intensity [49] of 3.8 and a Mean fluorescence intensity [50] of 3.6.

Reference: patent publication US20220033501A1
